Measurements as given in publication PMC11507401, “Functional and Physiological Characterization of Tyrosine Decarboxylases from Olea europaea L. Involved in the Synthesis of the Main Phenolics in Olive Fruit and Virgin Olive Oil” (International Journal of Molecular Sciences, 2024).

B1: OeTDC1 (Olea europaea subsp. europaea) (protein)
chain: MGSLQNQKPENGFTGAPIKPLDPEEFRRQGHMVIDFLADYYKNVEKYPVRSQVQPGYLRKRLPESAPHEPEPIEEILQDVQKDIVPGITHWQSPNYYAYFPSSGSIAGFLGEMLSTGFNVVGFNWMSSPAATELESIVMDWLGKMLNLPSSFLFSGGGGGVLQGTTCEGILCTLVAARDQMLNKIGRDNIGKLVVYGSDQTHSALQKAAQIAGIEPKNFRAVQTTKATAFGLTAEALRSTIESDVEAGLVPLFLCPTVGTTSSTAVDPIGPLCEVAKEYGMWVHVDAAYAGSACILPEYRHFLDGVENADSFSFNAHKWFLTTLDCCCLWVKNPSALVKALSTYPEYLRNKATDSNQVVDYKDWQITLSRRFRSLKLWLVLRSYGVANLRKFLRSHIQMAKNFEGLIGMDKRFEVVVPRNFATVCFRISPIEIGKNHIVSKEEVTNEFNSKLLESINEAGKIYVTHAVIGGVYVIRFCVGTTLTENRHVILAWKTIQEHANALLSMS

What was measured:
[1] = molecular target: T1, OeTDC2 (Olea europaea, UniProt A0A8S0SA91); test: activity of enzyme extracted and purified with or without PLP; assay type: biochemical; conditions: PLP in or omitted from lysis and purification buffers; tightly bound cofactor
T1 construct: gene OLEA9_A073377

[2] = molecular target: T2, OeTDC1 (Olea europaea, UniProt A0AB74UCV8); test: as above; assay type: biochemical; conditions: PLP in or omitted from lysis and purification buffers; tightly bound cofactor
T2 construct: gene TDC1

[3] = substrate: N[C@@H](Cc1ccc(O)cc1)C(=O)O; test: purified protein; assay type: biochemical, Olea europaea; conditions: 50 mM Tris-HCl pH 8.0, 40 °C, 200 µM PLP, 15 min
[4] = substrate: N[C@@H](Cc1ccc(O)c(O)c1)C(=O)O; test: purified protein; assay type: biochemical, Olea europaea; conditions: 50 mM Tris-HCl pH 8.0, 40 °C, 200 µM PLP, 15 min

T1 sequence (A0A8S0SA91 entry or part of it): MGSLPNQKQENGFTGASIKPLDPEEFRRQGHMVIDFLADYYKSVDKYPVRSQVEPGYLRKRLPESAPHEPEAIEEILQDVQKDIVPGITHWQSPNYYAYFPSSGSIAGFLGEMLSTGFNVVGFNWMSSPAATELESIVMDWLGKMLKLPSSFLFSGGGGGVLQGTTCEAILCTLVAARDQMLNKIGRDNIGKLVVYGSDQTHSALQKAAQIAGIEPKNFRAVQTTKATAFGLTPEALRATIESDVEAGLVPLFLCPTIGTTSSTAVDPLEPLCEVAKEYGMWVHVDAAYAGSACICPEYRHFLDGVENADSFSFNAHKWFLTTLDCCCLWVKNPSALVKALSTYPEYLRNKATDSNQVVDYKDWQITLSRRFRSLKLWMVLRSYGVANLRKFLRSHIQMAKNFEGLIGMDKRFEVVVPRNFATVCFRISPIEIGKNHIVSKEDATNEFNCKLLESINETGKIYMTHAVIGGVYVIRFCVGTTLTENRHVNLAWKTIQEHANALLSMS

Row | Molecule | activity of enzyme extracted and purified with or without PLP [1] | activity of enzyme extracted and purified with or without PLP [2] | Km [3] [µM] | Vmax [3] [µmol/min/mg] | kcat [3] [s⁻¹] | kcat/Km [3] [M⁻¹ s⁻¹] | Km [4] [µM] | Vmax [4] [µmol/min/mg] | kcat [4] [s⁻¹] | kcat/Km [4] [M⁻¹ s⁻¹]
1 | Cc1ncc(COP(=O)(O)O)c(C=O)c1O [PLP] | it was observed that PLP binds tightly to the olive TDC proteins | it was observed that PLP binds tightly to the olive TDC proteins | – | – | – | – | – | – | – | –
2 | B1 | – | – | 1900 | 12.4 | 12.8 | 6720 | 340 | 4.08 | 3.82 | 11300
